{
  "source": "patent US8409577",
  "about": "(EMERGENT PRODUCT DEVELOPMENT SEATTLE, dated 2013)",
  "biological_target": "T1, CD20 (human, UniProt P11836 1-297)",
  "T1 construct": "whole, on cells; target on WIL2-S (WIL-2S), Ramos and BJAB cells; also called human CD20",
  "T1 sequence (looked up)": "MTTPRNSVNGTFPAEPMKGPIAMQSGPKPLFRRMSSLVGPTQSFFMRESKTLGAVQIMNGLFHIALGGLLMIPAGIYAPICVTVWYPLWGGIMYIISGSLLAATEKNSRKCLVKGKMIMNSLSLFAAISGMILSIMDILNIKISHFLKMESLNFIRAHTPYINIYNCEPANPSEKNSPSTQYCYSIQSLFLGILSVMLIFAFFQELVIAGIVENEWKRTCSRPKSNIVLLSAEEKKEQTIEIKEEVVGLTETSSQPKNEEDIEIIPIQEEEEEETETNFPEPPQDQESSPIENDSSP",
  "test": "flow cytometry: 2e12 HL SMIP on WIL-2S cells (CD20), then CD28mIgG 5 ug/ml and FITC anti-mouse 1:100",
  "method": "In this case, the fusion proteins were first bound to WIL-2S CD20 expressing cells, and binding was then detected with CD28mIgG (5 µg/ml) and FITC anti-mouse reagent at 1:100.",
  "data": [
    {"binder": "2E12IgG-VHVL SMIP (Fc fusion, also called 2e12 VHVL SMIP; 2e12 HL SMIP; not shown: IgG hinge-CH2-CH3 of the SMIP, not described) VQVQLKESGPGLVAPSQSLSITCTVSGFSLTGYGVNWVRQPPGKGLEWLGMIWGDGSTDYNSALKSRLSITKDNSKSQVFLKMNSLQTDDTARYYCARDGYSNFHYYVMDYWGQGTSVTVSSGGGGSGGGGSGGGGSGGGGSDIVLTQSPASLAVSLGQRATISCRASESVEYYVTSLMQWYQQKPGQPPKLLISAASNVESGVPARFSGSGSGTDFSLNIHPVEEDDIAMYFCQQSRKVPWTFGGGTKLEIKR", "values": [
      {"measurement": "binding result", "value": "no binding (tested: about 5 ug/mL (read off the axis))"}
    ]}
  ]
}
